From PMC5376981 (Scientific Reports, 2014)
Positions count from the first letter of the chain named.

Tests used:
[1] = target: native VAR2CSA on NF54-CSA infected erythrocytes (Plasmodium falciparum NF54 (parent of …, UniProt Q8I639, strain)); assay: flow cytometry on cells
[2] = target: native VAR2CSA on FCR3-CSA infected erythrocytes (Plasmodium falciparum FCR3, UniProt Q6UDW7, strain); assay: flow cytometry on cells
3D7-DBL2X = 3D7-DBL2X (Plasmodium falciparum 3D7, UniProt Q8I639, strain); assay: ELISA
3D7-DBL1X = 3D7-DBL1X (Plasmodium falciparum 3D7, UniProt Q8I639, strain); assay: ELISA
3D7-DBL1X-3X = 3D7-DBL1X-3X (Plasmodium falciparum 3D7, UniProt Q8I639, strain); assay: ELISA
FCR3-DBL3X = FCR3-DBL3X (Plasmodium falciparum FCR3, UniProt Q6UDW7, strain); assay: ELISA
[3] = target: full-length VAR2CSA recombinant protein (3D7-DBL1X-6ε) (Plasmodium falciparum 3D7, UniProt Q8I639, strain); assay: SPR
FCR3-DBL6ε = FCR3-DBL6ε (Plasmodium falciparum FCR3, UniProt Q6UDW7, strain); assay: ELISA
3D7-DBL5ε = 3D7-DBL5ε (Plasmodium falciparum 3D7, UniProt Q8I639, strain); assay: ELISA
FCR3-DBL3X-4ε = FCR3-DBL3X-4ε (Plasmodium falciparum FCR3, UniProt Q6UDW7, strain); assay: ELISA
3D7-DBL6ε = 3D7-DBL6ε (Plasmodium falciparum 3D7, UniProt Q8I639, strain); assay: ELISA

B1: VHH874 (VHH)
VHH: QVQLQESGGGLVQAGGSLRLSCAASGRAFSDYAMGWFRQAPGKERDFVAAISWNGGNTYYSDSVKGRFTISRDNAKNTVYLQMNSLKPEDTAVYYCAANDLAVPELLMPRVETYDYWGQGTQVTVSS
[1]
  binding result: binds
[2]
  binding result: binds
3D7-DBL2X
  binding result: no binding (tested: 0.3 µg/ml)
3D7-DBL1X
  binding result: binds
3D7-DBL1X-3X
  binding result: binds
FCR3-DBL3X
  binding result: no binding (tested: 0.3 µg/ml)

B2: VHH879 (VHH)
VHH: B1 VHH with A28T, E44D, D46E, N54S, G56D, N57R, S61A, Y95H, A102M, T113S
[2]
  binding result: binds
[3]
  Kd: 19 nM
  koff: 0.0015 s⁻¹
  kon: 79000 M⁻¹ s⁻¹
3D7-DBL2X
  binding result: no binding (tested: 0.3 µg/ml)
FCR3-DBL3X
  binding result: no binding (tested: 0.3 µg/ml)

B3: VHH884 (VHH)
VHH: B1 VHH with A28T, D31N, D46E, N57S, S61A, V64A, K76E, Y95R, A102M
[2]
  binding result: binds
[3]
  Kd: 400 nM
  koff: 0.0036 s⁻¹
  kon: 9860 M⁻¹ s⁻¹
3D7-DBL2X
  binding result: no binding (tested: 0.3 µg/ml)
FCR3-DBL3X
  binding result: no binding (tested: 0.3 µg/ml)

B4: VHH905 (VHH)
VHH: B1 VHH with A28T, D31S, D46E, N57S, S61A, K76E, V79G, A102M
[1]
  binding result: binds
[2]
  binding result: binds
3D7-DBL1X
  binding result: binds
3D7-DBL1X-3X
  binding result: binds

B5: VHH863 (VHH)
VHH: QVQLQESGGGLVQTGGSLRLSCAASGRTFMDYVMGWFRQAPGKEREFVASISWTDSTRYTDSVKGRFTASRDDAEATVYLQMNNLQFEDTAVYYCARGAGRGHSVSAGDYVYWGQGTQVTVSS
[2]
  binding result: no binding (tested: 100 µg/ml)
[3]
  Kd: 46 nM
  koff: 0.0014 s⁻¹
  kon: 31000 M⁻¹ s⁻¹
FCR3-DBL6ε
  binding result: no binding (tested: 0.3 µg/ml)

B6: VHH864 (VHH)
VHH: B5 VHH with E75K
[2]
  binding result: no binding (tested: 100 µg/ml)
[3]
  Kd: 18 nM
  koff: 0.00063 s⁻¹
  kon: 34000 M⁻¹ s⁻¹
FCR3-DBL6ε
  binding result: no binding (tested: 0.3 µg/ml)

B7: VHH880 (VHH)
VHH: QVQLQESGGGLVQAGGSLRLSCAASGRTFSDYAMGWFRQAPGKDREFVAAISWSGDRTYYADSVKGRFTISRDNAENTVYLQMNSLKPEDTAVYHCAANDLMVPELLMPRVESYDYWGQGTQVTVSS
[2]
  binding result: binds
[3]
  Kd: 100 nM
  koff: 0.0018 s⁻¹
  kon: 15000 M⁻¹ s⁻¹
3D7-DBL2X
  binding result: no binding (tested: 0.3 µg/ml)
FCR3-DBL3X
  binding result: no binding (tested: 0.3 µg/ml)

B8: VHH883 (VHH)
VHH: B7 VHH with D31S, D44E, R57T, E76K, Y80S, H95Y, E105A, V111L
[2]
  binding result: binds
[3]
  Kd: 10 nM
  koff: 0.0017 s⁻¹
  kon: 170000 M⁻¹ s⁻¹
3D7-DBL2X
  binding result: no binding (tested: 0.3 µg/ml)
FCR3-DBL3X
  binding result: no binding (tested: 0.3 µg/ml)

B9: VHH861 (VHH)
VHH: QVQLQESGGGLVQAGGSLRLSCAFSGSIFKMGWYRQAPGKERELVATITHIGVTDYAEFVKGRFTISRDNAKNTVYLLMNSLKPEDTAVYYCNVASRWPDYWGQGTQVTVSS
[3]
  Kd: 35 nM
  koff: 0.001 s⁻¹
  kon: 29000 M⁻¹ s⁻¹
3D7-DBL5ε
  binding result: no binding (tested: 0.3 µg/ml)
FCR3-DBL3X-4ε
  binding result: binds
3D7-DBL6ε
  binding result: no binding (tested: 0.3 µg/ml)
FCR3-DBL6ε
  binding result: no binding (tested: 0.3 µg/ml)
